Literature values as cited in PMC11988805.

Tests used:
[1] = molecular target: stapled BH3 peptide BH3 (Homo sapiens) (UniProt P55957)
[2] = molecular target: unstapled BH3 peptide BH3 (Homo sapiens) (UniProt P55957)

Substance: Bcl-2 (from UniProt P10415)
- Kd [1]: 38.8 nM
- Kd [2]: 269 nM
